Results taken from paper PMC12446779, “Structural basis of transglucosylation in dextran dextrinase, a homolog of anomer-inverting GH15 glucoside hydrolases” (The Journal of Biological Chemistry, 2025).

Substrate: OC[C@H]1O[C@H](F)[C@H](O)[C@@H](O)[C@@H]1O
Assay: fluoride release, colorimetric (Alfusone), Michaelis-Menten fit
Format: biochemical, Gluconobacter oxydans
Details: 130 mM sodium acetate pH 4.2, 35 °C, 0.2 mg/ml BSA
From the text: fluoride release, colorimetric (Alfusone), Michaelis-Menten fit on Δ382C (DDase-Δ382C)

B1: Δ382C (DDase-Δ382C) (Gluconobacter oxydans) (protein)
chain: MADNSDEQFVASDYTLLGDATDDPNGMVDMPAGQEPATTNAVPSGVEYNFLAATAGYYTVSFAYQNTANAAAYEQLSINGQNEPGVVEFDQTSGASTGTAYASVYLKAGLNSVELNNQTTDETNGLTPVPEDQLQASPAFQIGTSTVAAGASPSQETSAQSLAISNQTDMQAFVQGESMAPKQQWTFGPSLSELHVGSNDELNQLDFNAVWFRNVTPGQQAETYSPYFKSNESFDANGVLHVNYGAYSPTGQALPVQIQATYANVPNENLIVENLSLTNQNASGTQPLVWDVMNATGINPGEVSSTTWDPTHNAWIVTEDQGSGKSPLYLAIGDYQVSNSTHAAGVDGVNVRGSYSLSSGASGNPSLNAPDQGVIGGFENNGTMVGSSSGASGTNLAVGTTDSDVTLNPGQTVDLSYYLSTATSLSQLDANLDKYTNTVGSTTSSTPMTDATGASAASSWTQQTATAWDDTLNQAYNLAGSTETSGQAATAASGQTLDPTSSAAAQSAYRSSLINILQAQSPEYGSFMASTNPSYEYKVWVRDSAATAIGLDDAGLTQPADKFWRWMASVEQNGMNATYSGNASGTFSTNYGEFDQNLPIGFVAPENDSQGLFLIGSYRHYEQMLSEGQTQQAQSFISDPTVRQALVNSANWIQENIGSNGLGPADYSIWEDMYGYHTFTQVTYAEGLNAASQLASAMGEGNQAQTWATGAETIKDAILRPTTASTPGLWNAQEGHFVEMINPNGTIDNTIDADTNIAAVFGLVSPTSIYATENAQAVENALTQDNFGLSRYQNETFYQSSQWSPGGTYEAQGISPSWPQMTAYDSIVSMDSGNTTQANNDLSWIEQSYDNGGTPPGESYDWARGQPIESTSSEPVTASWYVQDLLNSTGQTSTLMPAITGQ
notes: C-terminal truncation Met1-Ser902 (domains N1, N2, HLH, A); N-terminal His6 tag (…) kept; E. coli BL21-CodonPlus(DE3)-RIL; 921 residues with tag; dimer 195,604 Da
- Km: 40 ± 4 mM
- kcat: 15 ± 1 s⁻¹
- kcat/Km: 380 M⁻¹ s⁻¹

B2: Δ382C (DDase-Δ382C) (Gluconobacter oxydans; E671Q) (protein)
chain: MADNSDEQFVASDYTLLGDATDDPNGMVDMPAGQEPATTNAVPSGVEYNFLAATAGYYTVSFAYQNTANAAAYEQLSINGQNEPGVVEFDQTSGASTGTAYASVYLKAGLNSVELNNQTTDETNGLTPVPEDQLQASPAFQIGTSTVAAGASPSQETSAQSLAISNQTDMQAFVQGESMAPKQQWTFGPSLSELHVGSNDELNQLDFNAVWFRNVTPGQQAETYSPYFKSNESFDANGVLHVNYGAYSPTGQALPVQIQATYANVPNENLIVENLSLTNQNASGTQPLVWDVMNATGINPGEVSSTTWDPTHNAWIVTEDQGSGKSPLYLAIGDYQVSNSTHAAGVDGVNVRGSYSLSSGASGNPSLNAPDQGVIGGFENNGTMVGSSSGASGTNLAVGTTDSDVTLNPGQTVDLSYYLSTATSLSQLDANLDKYTNTVGSTTSSTPMTDATGASAASSWTQQTATAWDDTLNQAYNLAGSTETSGQAATAASGQTLDPTSSAAAQSAYRSSLINILQAQSPEYGSFMASTNPSYEYKVWVRDSAATAIGLDDAGLTQPADKFWRWMASVEQNGMNATYSGNASGTFSTNYGEFDQNLPIGFVAPENDSQGLFLIGSYRHYEQMLSEGQTQQAQSFISDPTVRQALVNSANWIQENIGSNGLGPADYSIWQDMYGYHTFTQVTYAEGLNAASQLASAMGEGNQAQTWATGAETIKDAILRPTTASTPGLWNAQEGHFVEMINPNGTIDNTIDADTNIAAVFGLVSPTSIYATENAQAVENALTQDNFGLSRYQNETFYQSSQWSPGGTYEAQGISPSWPQMTAYDSIVSMDSGNTTQANNDLSWIEQSYDNGGTPPGESYDWARGQPIESTSSEPVTASWYVQDLLNSTGQTSTLMPAITGQ
notes: as for B1
- Km: 1.5 ± 0.1 mM
- kcat: 0.025 ± 0.002 s⁻¹
- kcat/Km: 17 M⁻¹ s⁻¹
